Experimental data reported in patent US20240261333A1, “NOVEL TARGETS FOR ENHANCING ANTI-TUMOR IMMUNITY” (THE BROAD INSTITUTE, INC., priority 2021, published 2024).

Columns and labels:
CDSN = CDSN (UniProt Q15517); assay: co-IP, IgG control, N-FLAG B3GNT2 cell lysate, mass spectrometry
TNKS1BP1 = TNKS1BP1 (UniProt Q9C0C2); assay: as above
RPS16 = RPS16 (UniProt P62249); assay: as above
MTCH2 = MTCH2 (UniProt Q9Y6C9); assay: as above
RPS13 = RPS13 (UniProt P62277); assay: as above
RPL22 = RPL22 (UniProt P35268); assay: as above
HSPB1 = HSPB1 (UniProt P04792); assay: as above
TMEM59 = TMEM59 (UniProt Q9BXS4); assay: as above
Sequence of TMEM59 (Q9BXS4 36-323 limits assumed): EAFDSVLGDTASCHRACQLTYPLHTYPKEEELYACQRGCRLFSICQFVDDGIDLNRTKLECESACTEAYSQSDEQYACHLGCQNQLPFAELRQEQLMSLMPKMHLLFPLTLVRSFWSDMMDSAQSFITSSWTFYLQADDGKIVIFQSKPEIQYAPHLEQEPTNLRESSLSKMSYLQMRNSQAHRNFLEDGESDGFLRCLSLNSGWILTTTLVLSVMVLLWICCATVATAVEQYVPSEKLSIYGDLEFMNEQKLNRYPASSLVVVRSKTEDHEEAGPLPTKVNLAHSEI

RPS18 = RPS18 (UniProt P62269); assay: as above
RPL35 = RPL35 (UniProt P42766); assay: as above
ARG1 = ARG1 (UniProt P05089); assay: as above
Sequence of ARG1 (P05089 whole entry): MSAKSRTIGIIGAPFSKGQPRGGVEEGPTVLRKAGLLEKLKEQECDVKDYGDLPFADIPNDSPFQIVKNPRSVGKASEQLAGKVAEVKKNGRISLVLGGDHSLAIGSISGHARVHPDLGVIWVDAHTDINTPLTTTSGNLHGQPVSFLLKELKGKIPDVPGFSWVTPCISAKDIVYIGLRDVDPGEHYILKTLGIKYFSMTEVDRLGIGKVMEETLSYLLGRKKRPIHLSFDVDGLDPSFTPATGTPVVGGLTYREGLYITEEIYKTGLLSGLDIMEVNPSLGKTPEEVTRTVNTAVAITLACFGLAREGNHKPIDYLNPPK

RPL37A = RPL37A (UniProt P61513); assay: as above
ITGB3 = ITGB3 (UniProt P05106); assay: as above
Sequence of ITGB3 (P05106 27-788 limits assumed): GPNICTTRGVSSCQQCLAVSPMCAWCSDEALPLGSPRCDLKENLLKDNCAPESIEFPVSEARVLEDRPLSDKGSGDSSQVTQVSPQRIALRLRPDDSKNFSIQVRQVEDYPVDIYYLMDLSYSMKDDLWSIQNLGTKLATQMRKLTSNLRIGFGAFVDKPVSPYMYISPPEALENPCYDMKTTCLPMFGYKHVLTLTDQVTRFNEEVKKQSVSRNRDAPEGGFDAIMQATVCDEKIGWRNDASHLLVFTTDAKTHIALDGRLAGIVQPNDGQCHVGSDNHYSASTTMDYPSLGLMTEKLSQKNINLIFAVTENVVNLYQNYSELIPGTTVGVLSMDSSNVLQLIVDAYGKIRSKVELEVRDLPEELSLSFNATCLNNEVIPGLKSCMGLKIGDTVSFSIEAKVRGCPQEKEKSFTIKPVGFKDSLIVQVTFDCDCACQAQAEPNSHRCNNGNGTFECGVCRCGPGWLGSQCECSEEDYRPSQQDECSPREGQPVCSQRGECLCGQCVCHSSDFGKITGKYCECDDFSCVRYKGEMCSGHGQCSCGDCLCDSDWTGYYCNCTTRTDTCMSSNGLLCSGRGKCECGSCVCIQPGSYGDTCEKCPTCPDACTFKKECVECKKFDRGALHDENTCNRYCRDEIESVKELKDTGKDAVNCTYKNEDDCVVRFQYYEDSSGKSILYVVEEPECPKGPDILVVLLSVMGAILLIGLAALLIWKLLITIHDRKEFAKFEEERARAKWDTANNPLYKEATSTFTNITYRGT

CFL1 = CFL1 (UniProt P23528); assay: as above
Sequence of CFL1 (P23528 2-166 limits assumed): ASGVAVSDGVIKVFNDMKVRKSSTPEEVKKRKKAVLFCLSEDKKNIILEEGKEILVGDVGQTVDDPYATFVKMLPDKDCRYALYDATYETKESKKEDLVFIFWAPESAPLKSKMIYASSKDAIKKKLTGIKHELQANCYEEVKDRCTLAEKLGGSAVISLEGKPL

POF1B = POF1B (UniProt Q8WVV4); assay: as above
Sequence of POF1B (Q8WVV4 other isoform, or with tags, fused parts or gaps limits assumed): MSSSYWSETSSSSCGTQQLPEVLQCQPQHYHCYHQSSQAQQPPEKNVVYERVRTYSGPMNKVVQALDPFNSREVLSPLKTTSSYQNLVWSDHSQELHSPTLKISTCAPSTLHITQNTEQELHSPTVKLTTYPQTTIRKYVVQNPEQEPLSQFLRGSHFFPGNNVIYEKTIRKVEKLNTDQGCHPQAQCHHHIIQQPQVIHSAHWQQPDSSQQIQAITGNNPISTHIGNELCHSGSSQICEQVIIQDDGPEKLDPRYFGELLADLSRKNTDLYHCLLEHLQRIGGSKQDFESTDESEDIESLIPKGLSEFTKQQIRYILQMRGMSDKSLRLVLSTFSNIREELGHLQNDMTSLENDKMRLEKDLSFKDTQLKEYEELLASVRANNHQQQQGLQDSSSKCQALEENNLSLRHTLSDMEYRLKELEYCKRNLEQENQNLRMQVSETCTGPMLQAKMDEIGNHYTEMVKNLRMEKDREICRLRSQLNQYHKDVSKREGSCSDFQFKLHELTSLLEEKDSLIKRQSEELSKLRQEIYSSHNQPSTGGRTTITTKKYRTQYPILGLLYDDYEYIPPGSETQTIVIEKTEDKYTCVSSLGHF

EMD = EMD (UniProt P50402); assay: as above
EIF4G1 = EIF4G1 (UniProt Q04637); assay: as above
UQCRC2 (human) = UQCRC2 (human) (UniProt P22695); assay: co-IP/MS, anti-FLAG IP of C-FLAG B3GNT2 cell lysate
Sequence of UQCRC2 (human) (P22695 15-453 limits assumed): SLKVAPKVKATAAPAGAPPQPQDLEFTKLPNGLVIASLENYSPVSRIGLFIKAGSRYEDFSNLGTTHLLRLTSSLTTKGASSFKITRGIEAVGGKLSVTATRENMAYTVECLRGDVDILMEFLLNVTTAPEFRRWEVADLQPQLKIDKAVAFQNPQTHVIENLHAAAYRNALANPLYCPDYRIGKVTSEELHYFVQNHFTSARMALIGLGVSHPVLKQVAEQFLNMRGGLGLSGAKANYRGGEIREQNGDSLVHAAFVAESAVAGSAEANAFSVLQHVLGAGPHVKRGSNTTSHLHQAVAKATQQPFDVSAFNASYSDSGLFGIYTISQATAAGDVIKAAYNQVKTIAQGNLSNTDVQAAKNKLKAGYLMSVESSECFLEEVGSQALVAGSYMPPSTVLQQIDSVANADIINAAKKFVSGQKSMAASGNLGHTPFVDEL

PRDX2 (human) = PRDX2 (human) (UniProt P32119); assay: as above
SLC25A4 (human) = SLC25A4 (human) (UniProt P12235); assay: as above
Sequence of SLC25A4 (human) (P12235 2-298 limits assumed): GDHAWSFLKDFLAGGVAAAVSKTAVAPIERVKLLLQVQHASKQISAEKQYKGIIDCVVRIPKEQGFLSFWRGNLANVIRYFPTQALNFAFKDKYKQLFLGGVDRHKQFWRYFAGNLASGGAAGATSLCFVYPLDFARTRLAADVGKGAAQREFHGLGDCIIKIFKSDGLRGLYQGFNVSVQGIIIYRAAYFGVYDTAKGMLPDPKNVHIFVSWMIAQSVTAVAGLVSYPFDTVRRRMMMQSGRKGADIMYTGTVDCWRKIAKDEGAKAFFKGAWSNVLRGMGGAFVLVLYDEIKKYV

RPL13A (human) = RPL13A (human) (UniProt P40429); assay: as above
CANX (human) = CANX (human) (UniProt P27824); assay: as above
Sequence of CANX (human) (P27824 21-592 limits assumed): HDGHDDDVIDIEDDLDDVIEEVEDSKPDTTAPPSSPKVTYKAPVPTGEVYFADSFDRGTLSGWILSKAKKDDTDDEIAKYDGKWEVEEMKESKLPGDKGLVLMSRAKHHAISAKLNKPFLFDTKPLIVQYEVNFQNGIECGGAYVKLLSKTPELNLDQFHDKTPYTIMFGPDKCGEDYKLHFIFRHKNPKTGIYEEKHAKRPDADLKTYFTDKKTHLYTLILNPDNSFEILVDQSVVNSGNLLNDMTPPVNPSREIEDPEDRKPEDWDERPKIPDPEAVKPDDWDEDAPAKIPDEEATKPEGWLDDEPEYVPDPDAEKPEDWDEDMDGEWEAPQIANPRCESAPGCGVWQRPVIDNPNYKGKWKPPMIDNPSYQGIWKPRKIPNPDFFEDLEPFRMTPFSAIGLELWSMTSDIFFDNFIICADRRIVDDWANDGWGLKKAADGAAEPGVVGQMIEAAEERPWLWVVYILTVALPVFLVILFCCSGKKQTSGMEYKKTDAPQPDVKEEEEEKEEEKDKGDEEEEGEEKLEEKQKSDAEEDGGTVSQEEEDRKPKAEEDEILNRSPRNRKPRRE

DNAJA1 (human) = DNAJA1 (human) (UniProt P31689); assay: as above
PRDX1 (human) = PRDX1 (human) (UniProt Q06830); assay: as above
Sequence of PRDX1 (human) (Q06830 2-199 limits assumed): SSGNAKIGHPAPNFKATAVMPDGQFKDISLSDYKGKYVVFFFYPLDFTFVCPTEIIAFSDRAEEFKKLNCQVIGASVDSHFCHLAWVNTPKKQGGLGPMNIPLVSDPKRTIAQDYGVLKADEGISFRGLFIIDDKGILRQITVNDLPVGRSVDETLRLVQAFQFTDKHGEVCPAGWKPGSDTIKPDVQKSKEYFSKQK

FAM3C (human) = FAM3C (human) (UniProt Q92520); assay: as above
CKAP4 (human) = CKAP4 (human) (UniProt Q07065); assay: as above
TUBB (human) = TUBB (human) (UniProt P07437); assay: as above
Sequence of TUBB (human) (P07437 whole entry): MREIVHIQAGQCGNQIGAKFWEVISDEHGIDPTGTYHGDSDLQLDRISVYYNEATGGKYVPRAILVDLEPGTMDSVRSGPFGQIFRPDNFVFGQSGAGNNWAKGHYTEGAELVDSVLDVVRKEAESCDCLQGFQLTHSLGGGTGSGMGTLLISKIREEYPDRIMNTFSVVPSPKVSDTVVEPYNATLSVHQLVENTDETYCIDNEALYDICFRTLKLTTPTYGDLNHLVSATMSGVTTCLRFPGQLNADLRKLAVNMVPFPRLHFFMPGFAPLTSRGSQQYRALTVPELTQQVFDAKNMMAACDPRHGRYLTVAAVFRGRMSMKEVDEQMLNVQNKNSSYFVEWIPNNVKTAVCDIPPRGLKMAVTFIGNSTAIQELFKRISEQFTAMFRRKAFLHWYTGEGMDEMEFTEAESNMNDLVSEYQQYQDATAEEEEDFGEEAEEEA

RPL24 (human) = RPL24 (human) (UniProt P83731); assay: as above
RPL30 (human) = RPL30 (human) (UniProt P62888); assay: as above
IPO4 (human) = IPO4 (human) (UniProt Q8TEX9); assay: as above
HSD17B12 (human) = HSD17B12 (human) (UniProt Q53GQ0); assay: as above
Sequence of HSD17B12 (human) (Q53GQ0 whole entry): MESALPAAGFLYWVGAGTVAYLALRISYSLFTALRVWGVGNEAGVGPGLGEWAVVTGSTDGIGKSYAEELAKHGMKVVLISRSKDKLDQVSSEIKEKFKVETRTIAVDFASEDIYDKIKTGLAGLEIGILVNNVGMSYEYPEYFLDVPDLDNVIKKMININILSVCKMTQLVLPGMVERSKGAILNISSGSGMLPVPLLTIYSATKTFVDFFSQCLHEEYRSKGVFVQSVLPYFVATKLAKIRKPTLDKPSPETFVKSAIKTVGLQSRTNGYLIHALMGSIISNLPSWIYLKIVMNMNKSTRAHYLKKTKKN

RPS9 (human) = RPS9 (human) (UniProt P46781); assay: as above
ERLIN2 (human) = ERLIN2 (human) (UniProt O94905); assay: as above
Sequence of ERLIN2 (human) (O94905 whole entry): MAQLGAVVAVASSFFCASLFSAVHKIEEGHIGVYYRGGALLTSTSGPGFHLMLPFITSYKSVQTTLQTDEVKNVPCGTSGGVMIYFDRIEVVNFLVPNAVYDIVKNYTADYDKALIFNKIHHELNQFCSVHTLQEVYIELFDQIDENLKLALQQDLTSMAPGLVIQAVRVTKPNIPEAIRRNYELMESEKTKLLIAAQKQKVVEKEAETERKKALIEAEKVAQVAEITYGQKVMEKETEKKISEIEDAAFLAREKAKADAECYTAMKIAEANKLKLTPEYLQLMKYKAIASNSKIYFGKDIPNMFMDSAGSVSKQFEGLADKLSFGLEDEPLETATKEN

PDIA6 (human) = PDIA6 (human) (UniProt Q15084); assay: as above
RPS3A (human) = RPS3A (human) (UniProt P61247); assay: as above
RPLPO (human) = RPLPO (human) (UniProt P05388); assay: as above
RPL23A (human) = RPL23A (human) (UniProt P62750); assay: as above
RPS5 (human) = RPS5 (human) (UniProt P46782); assay: as above
CAPZB (human) = CAPZB (human) (UniProt P47756); assay: as above

Substance “IgG control (Millipore Sigma 12-371) (antibody)” has a co-IP mass spectrometry count (CDSN) of 0, a co-IP mass spectrometry count (TNKS1BP1) of 4 and a co-IP mass spectrometry count (RPS16) of 10. For the same substance, the co-IP mass spectrometry count (MTCH2) was 0, the co-IP mass spectrometry count (RPS13) was 2 and the co-IP mass spectrometry count (RPL22) was 0. The co-IP mass spectrometry count (HSPB1) was 4, the co-IP mass spectrometry count (TMEM59) was 0 and the co-IP mass spectrometry count (RPS18) was 11. It also gave a co-IP mass spectrometry count (RPL35) of 2, a co-IP mass spectrometry count (ARG1) of 4 and a co-IP mass spectrometry count (RPL37A) of 4. It also gave a co-IP mass spectrometry count (ITGB3) of 0, a co-IP mass spectrometry count (CFL1) of 3 and a co-IP mass spectrometry count (POF1B) of 0. The co-IP mass spectrometry count (EMD) was 0 and the co-IP mass spectrometry count (EIF4G1) was 2.
With “C-terminal FLAG tagged B3GNT2 (from UniProt Q9NY97 1-397) (enzyme)” the co-IP mass spectrometry count (UQCRC2 (human)) was 4, the co-IP mass spectrometry count (PRDX2 (human)) was 5 and the co-IP mass spectrometry count (SLC25A4 (human)) was 14. It also gave a co-IP mass spectrometry count (RPL13A (human)) of 13, a co-IP mass spectrometry count (CANX (human)) of 11 and a co-IP mass spectrometry count (DNAJA1 (human)) of 10. For the same substance, the co-IP mass spectrometry count (PRDX1 (human)) was 6, the co-IP mass spectrometry count (FAM3C (human)) was 23 and the co-IP mass spectrometry count (CKAP4 (human)) was 14. The co-IP mass spectrometry count (TUBB (human)) was 117, the co-IP mass spectrometry count (RPL24 (human)) was 14 and the co-IP mass spectrometry count (RPL30 (human)) was 14. The co-IP mass spectrometry count (IPO4 (human)) was 17, the co-IP mass spectrometry count (HSD17B12 (human)) was 10 and the co-IP mass spectrometry count (RPS9 (human)) was 6. The co-IP mass spectrometry count (ERLIN2 (human)) was 9, the co-IP mass spectrometry count (PDIA6 (human)) was 14 and the co-IP mass spectrometry count (RPS3A (human)) was 29. For the same substance, the co-IP mass spectrometry count (RPLPO (human)) was 10, the co-IP mass spectrometry count (RPL23A (human)) was 10 and the co-IP mass spectrometry count (RPS5 (human)) was 6. It also gave a co-IP mass spectrometry count (CAPZB (human)) of 5.
